Patent US8124583B2, “Composition and method for self-assembly and mineralization of peptide-amphiphiles” (Northwestern University, priority 2002, dated 2012)
Square brackets hold non-standard residues; d marks the D form. * marks the point of attachment. Palmitoyl = CCCCCCCCCCCCCCCC(=O)*; pS = N[C@@H](COP(=O)(O)O)C(=O)O; C16 = 16 carbon alkyl tail

Legend:
Format in all cases: physicochemical
[1] = Gelation of charged peptide amphiphile solutions with ions or with each other; settings: positive PA in Ca+2 (reaction 4); negative PA in PO4−3 (reaction 5)
Description: In another example of this invention, the composition and method consists of using highly charged peptide amphiphile species (16 carbon alkyl tail with a sequence like CCCCGGGSS(P)DS(P)D (SEQ ID NO: 14) with a −7 charge, for example) dissolved in a solution of negative ions (phosphate ions with a −3 charge), call this solution X. A second solution with a positively-charged peptide amphiphile species (such as 16 carbon alkyl tail with a sequence like ACAAGGGKRGDS (SEQ ID NO: 21)—an amine terminated PA at +1 charge) in a solution with positively-charged ions, such as Ca^2+; call this solution Y. In both solutions the peptide heads are charged and the structural element of the peptide can be varied, to give different charged peptide-amphiphile species, depending on the application.
The positive and negative peptide amphiphiles alone (no added salt ions) will gel each other, reaction 1, when mixed in the right ionic ratios (1:7, (−):(+) in this instance), forming mixed peptide amphiphile nanofibers, theoretically composed of 7 positive peptide amphiphiles for every 1 of the negative peptide amphiphiles. The positive peptide amphiphile solution Y may be gelled, reaction 2, with the negative ions (for example a solution containing phosphate ion PO4^−3). […] Mixing the positive and negative ions (calcium cation with phosphate anion) will make calcium phosphate mineral (reaction 6). […]

Solubility in water = settings: for concentration at which the molecules dissolve: pH 7.5-adjusted water
Description: (§1) The two molecules dissolve in pH 7.5-adjusted water at a concentration of about 10 mg/mL. Molecule 1 has a charge of (−1) and molecule 2 has a charge of (+2) under these conditions.
Cleavage and deprotection of the molecules was accomplished with a mixture of trifluoroacetic acid (TFA) and triisopropylsilane (TIS) in a ratio of 95:5 for three hours at room temperature. The cleavage mixture and two subsequent TFA washings were filtered into a round bottom flask. The solution was roto-evaporated to a thick viscous solution. This solution was triturated with cold diethylether. The white precipitate was collected by filtration, washed with copious cold ether and dried under vacuum. The molecules were then dissolved in water at a concentration of 10 mg/mL, adjusting the pH to improve solubility. The solution was initially acidic in both cases. In the case of molecule 1, the pH was raised to about pH 8 with 2M and 100 mM KOH, then back-titrated to pH 7.

[2] = Self assembly/gelation with monovalent salts (KCl, NaCl); settings: mixing with 200 mM KCl or NaCl solutions
Description: as §1
In all cases self assembled gels comprised of the nanofibers were formed similar to those described elsewhere (Hartgerink et al., 2001; Hartgerink et al., 2002). In contrast no self assembly or gel formation was observed when other negatively or positively charged peptide-amphiphiles were exposed to the NaCl or the KCl at concentrations up to 6 M. The fact that molecules 1 and 2 assemble in the presence of the monovalent salts sets them apart from the other molecules studied. […] The reason for this difference may be in the structure of these molecules. Both these molecules contain IKVAV (SEQ ID NO: 1) sequence at the c-terminus of the peptide segment. […]
Transmission Electron Micrographs of samples of the supramolecular compositions from the multi-dimensional peptide-amphiphiles, Molecule 1 and Molecule 2, were prepared as follows. A small sample of the supramolecular composition gel, prepared in bulk as described above, was smeared onto a holey carbon coated TEM grid (Quantifoil). […]

[3] = Self assembly with CaCl2 and hydroxyapatite mineralization of nanofiber gel (TEM, electron diffraction)
Description: A liquid composition for the self assembly of (1) and mineralization of hydroxyapatite was prepared by dissolving […] NaH2PO4 (Aldrich) into 200 microliters of (1) at a concentration of 10 mg/ml in water. The pH of the solution was adjusted to 7.7.
The liquid composition containing (1) and NaH2PO4 was mixed with 40 micromoles of CaCl2 (Aldrich).
Samples of the gel after 2 hours, 1 day, and 5 days were mounted on carbon-coated TEM grids. TEM studies of the 1 and 5 day samples show a multi-crystalline material composed of plate like crystals˜5 nm thick and 50 to 100 nm long. The plate like crystals were similar to those observed in the mineralization experiments on the pre-assembled template.

Question: Which “gelation in ions of the same charge sign” value [1] does the source give for “ACAAGGGKRGDS [positively-charged peptide amphiphile, 16 carbon alkyl tail, amine terminated PA]” here?
Answer: does not gel

Question: With “C15H31C(O)-CCCCGGGEIKVAV-COOH (Palmitoyl-CCCCGGGEIKVAV-OH; cysteine pairing not given here) [PA 22]” as the substance, how does the “concentration at which the molecules dissolve” value (Solubility in water) read?
Answer: about 10 mg/mL

Question: What about the “gel formation with monovalent salt” value [2] of the same substance?
Answer: self-supporting gel forms

Question: With “C15H31C(O)-CCCCGGGEIKVAV-NH2 (Palmitoyl-CCCCGGGEIKVAV-NH2; cysteine pairing not given here) [Molecule 2]” as the substance, how does the “concentration at which the molecules dissolve” value (Solubility in water) read?
Answer: about 10 mg/mL

Question: What about the “pH dependence of solubility” value (Solubility in water; water, 10 mg/mL, pH adjusted with KOH) of the same substance?
Answer: most soluble at low pH

Question: And the “gel formation with monovalent salt” value [2]?
Answer: self-supporting gel forms

Question: With “C15H31C(O)-CCCCGGGS(P)RGD-COOH (Palmitoyl-CCCCGGG[pS]RGD-OH; cysteine pairing not given here) [PA 18]” as the substance, how does the “self assembled gel formation” value ([3]; addition of CaCl2 to 10 mg/ml peptide-amphiphile preloaded with NaH2PO4, pH 7.7) read?
Answer: formed immediately

Question: And the “time until gel turned a white color (mineralization started)” value ([3]; after CaCl2 addition)?
Answer: about 2 hours

Question: For “CCCCGGGSS(P)DS(P)D (C16-CCCCGGGS[pS]D[pS]D-OH; cysteine pairing not given here; also: C16 alkyl tail)”, which “gelation in ions of the same charge sign” value [1] is on record?
Answer: does not gel
